# Measured values published in PMC10397247.
# T1: 4H452-AA
# T1 chain: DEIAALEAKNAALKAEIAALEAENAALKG
# T2: 4H3015-AA
# T2 chain: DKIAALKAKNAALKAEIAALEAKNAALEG
# T3: 4H249-AA
# T3 chain: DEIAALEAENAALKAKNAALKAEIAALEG
# T4: 4H406-AA
# T4 chain: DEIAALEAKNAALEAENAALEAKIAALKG
# T5: 4H56-AA
# T5 chain: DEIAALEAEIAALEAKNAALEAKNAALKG
# T6: 4H2466-AA
# T6 chain: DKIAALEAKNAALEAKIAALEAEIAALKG
# T7: 4H2732-AA
# T7 chain: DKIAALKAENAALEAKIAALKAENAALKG
# T8: 4H2124-AA
# T8 chain: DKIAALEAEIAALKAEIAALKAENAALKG
# T9: 4H2931-AA
# T9 chain: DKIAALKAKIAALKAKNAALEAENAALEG
# T10: 4H3073-AA
# T10 chain: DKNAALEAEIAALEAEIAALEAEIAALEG
# T11: 4H2253-AA
# T11 chain: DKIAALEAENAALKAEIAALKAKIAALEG
# T12: 4H3438-AA
# T12 chain: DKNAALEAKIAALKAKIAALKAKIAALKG
# T13: 4H347-AA
# T13 chain: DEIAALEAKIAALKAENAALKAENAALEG
# T14: 4H2165-AA
# T14 chain: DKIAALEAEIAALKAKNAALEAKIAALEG
# T15: 4H_BCR
# T15 chain: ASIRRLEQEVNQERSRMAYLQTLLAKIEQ
# T16: 4H1930-AA
# T16 chain: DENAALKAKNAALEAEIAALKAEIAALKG
# T17: 4H_APH
# T17 chain: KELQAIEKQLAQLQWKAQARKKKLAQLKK
# T18: 4H2592-AA
# T18 chain: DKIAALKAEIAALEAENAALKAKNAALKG
# T19: 4H2774-AA
# T19 chain: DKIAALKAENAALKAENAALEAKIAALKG
# T20: 4H2343-AA
# T20 chain: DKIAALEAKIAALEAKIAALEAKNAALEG
# T21: 4H2330-AA
# T21 chain: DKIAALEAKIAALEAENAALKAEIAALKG
# T22: 4H1821-AA
# T22 chain: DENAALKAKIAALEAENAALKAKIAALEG
# T23: 4H3001-AA
# T23 chain: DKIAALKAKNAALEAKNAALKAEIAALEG
# T24: 4H1828-AA
# T24 chain: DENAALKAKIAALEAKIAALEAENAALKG
# B1: 4H1821-AA (peptide)
# chain: DENAALKAKIAALEAENAALKAKIAALEG
# Experiments:
# Experiment in all cases: two-hybrid library CCmax;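 note: natural log of median RNA to DNA barcode read ratio; higher means stronger binding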
# [1] = biological target: 4H_GCN4
# 4H_GCN4, sequence (chain, as listed by the source): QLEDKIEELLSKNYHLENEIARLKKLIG
# [2] = biological target: T1, 4H452-AA; details: mean of both orientations
# [3] = biological target: T2, 4H3015-AA; details: mean of both orientations
# [4] = biological target: T3, 4H249-AA; details: mean of both orientations
# [5] = biological target: T4, 4H406-AA; details: mean of both orientations
# [6] = biological target: T5, 4H56-AA; details: mean of both orientations
# [7] = biological target: T6, 4H2466-AA; details: mean of both orientations
# [8] = biological target: T7, 4H2732-AA; details: mean of both orientations
# [9] = biological target: T8, 4H2124-AA; details: mean of both orientations
# [10] = biological target: T9, 4H2931-AA; details: mean of both orientations
# [11] = biological target: T10, 4H3073-AA; details: mean of both orientations
# [12] = biological target: T11, 4H2253-AA; details: mean of both orientations
# [13] = biological target: T12, 4H3438-AA; details: mean of both orientations
# [14] = biological target: T13, 4H347-AA; details: mean of both orientations
# [15] = biological target: T14, 4H2165-AA; details: mean of both orientations
# [16] = biological target: T15, 4H_BCR; details: mean of both orientations
# [17] = biological target: T16, 4H1930-AA; details: mean of both orientations
# [18] = biological target: T17, 4H_APH; details: mean of both orientations
# [19] = biological target: T18, 4H2592-AA; details: mean of both orientations
# [20] = biological target: T19, 4H2774-AA; details: mean of both orientations
# [21] = biological target: T20, 4H2343-AA; details: mean of both orientations
# [22] = biological target: GCN2_T; details: mean of both orientations
# [23] = biological target: T21, 4H2330-AA; details: mean of both orientations
# [24] = biological target: T22, 4H1821-AA
# [25] = biological target: T23, 4H3001-AA
# [26] = biological target: T24, 4H1828-AA; details: mean of both orientations
binder,measurement,setting,value
B1,interaction score,[1],-1.85
same,interaction score,[2],-1.25
same,interaction score,[3],-1.83
same,interaction score,[4],-1.68
same,interaction score,[5],-1.34
same,interaction score,[6],-1.44
same,interaction score,[7],-1.51
same,interaction score,[8],-1.04
same,interaction score,[9],-1.19
same,interaction score,[10],-1.77
same,interaction score,[11],-1.15
same,interaction score,[12],-0.989
same,interaction score,[13],-1.77
same,interaction score,[14],-1.26
same,interaction score,[15],-1.28
same,interaction score,[16],-1.69
same,interaction score,[17],-1.43
same,interaction score,[18],-2.19
same,interaction score,[19],-1.24
same,interaction score,[20],-1.53
same,interaction score,[21],-1.42
same,interaction score,[22],-1.68
same,interaction score,[23],-0.746
same,interaction score,[24],1.48
same,interaction score,[25],-1.51
same,interaction score,[26],-2.13
